Experimental data: patent US12139542B2, “Inhibitors of aortic carboxypeptidase-like protein (ACLP)” (TRUSTEES OF BOSTON UNIVERSITY, priority 2014, dated 2024)
Blank lines part the entries; values can stand above or below the molecule they belong to.

Tests used:
[1] = system: Smad3 phosphorylation (canonical TGFβ signaling); experiment: Smad3 phosphorylation in serum starved IMR90 fibroblasts (Western blot); format: cell-based, human; settings: for Smad3 phosphorylation: serum starved IMR90, ~30 nM protein, 30 min, low serum media
Description: (§1) IMR90 cells and MLEC-TGFβ cells were generally treated for 30 min, 24 h, or 48 h in low serum media containing 0.5% FBS and 1% penicillin/streptomycin and incubated in a 5% CO2 atmosphere at 37° C. Cells were treated with 3.75 μg/ml (approximately 30 nM) rACLP (full length, Tsp, or C-terminal) or 1 nM TGFβ (R&D) (as a positive control), except where indicated. Cells treated for 30 min were serum starved in low serum media overnight preceding treatment.
rACLP stimulates canonical TGFβ signaling (Published Tumelty et al JBC 2014). Because ACLP increases TGFβ signaling in a reporter assay, the role of ACLP in canonical TGFβ signaling was investigated in detail. In pulmonary fibroblasts, TGFβ promotes the phosphorylation of Smad3 which then binds to Smad4 and translocates into the nucleus to promote transcription of myofibroblast marker genes (4,5). Therefore, the effects of ACLP on Smad3 phosphorylation were measured. Serum starved IMR90 cells were treated with rACLP for 15, 30, 45, or 60 min, or 24 h (FIG. 3) (3).
Serum starved IMR90 human lung fibroblasts were treated with equivalent molar amounts (˜30 nM) of purified full-length, Tsp repeat domain, or C-terminal protein for 30 min in low serum media (FIG. 6).

[2] = system: TGFβ signaling activity (PAI-1 promoter luciferase); experiment: MLEC-TGFβ activity assay (PAI-1 promoter luciferase reporter); format: cell-based, mink; settings: MLEC-TGFβ cells, treated overnight in low serum media
Description: Cell Treatments. IMR90 human lung fibroblasts (ATCC) and AD293 cells (Stratagene) were grown in DMEM supplemented with 10% FBS and 1% penicillin/streptomycin and incubated in a 5% CO2 atmosphere at 37° C. Mink lung epithelial cells stably transfected with the plasminogen activator inhibitor 1 (PAI-1) reporter construct driving luciferase expression (MLEC-TGFβ) (2) were grown in DMEM supplemented with 10% FBS and 1% penicillin/streptomycin, maintained in 250 μg/ml G418, and incubated in a 5% CO2 atmosphere at 37° C. IMR90 cells and MLEC-TGFβ cells were generally treated for 30 min, 24 h, or 48 h in low serum media containing 0.5% FBS and 1% penicillin/streptomycin and incubated in a 5% CO2 atmosphere at 37° C. Cells were treated with 3.75 μg/ml (approximately 30 nM) rACLP (full length, Tsp, or C-terminal) or 1 nM TGFβ (R&D) (as a positive control), except where indicated. Cells treated for 30 min were serum starved in low serum media overnight preceding treatment. MLEC-TGFβ activity assay. To measure TGFβ signaling activity, 1×10^4 MLEC-TGFβ cells/well were plated on white 96-well cell culture treated plates and allowed to adhere overnight. […] Luciferase activity was measured on an auto-injecting BioTek Synergy HT plate reader using 50 μl of luciferase assay substrate (Promega).

[3] = system: IMR90 human lung fibroblast cells; experiment: SMA and collagen I protein expression in IMR90 fibroblasts treated with recombinant ACLP proteins (Western blot); format: cell-based; settings: IMR90, low serum media, 3.75 μg/ml (~30 nM) protein, 48 h, vs control cells
Description: Cell Treatments. IMR90 human lung fibroblasts (ATCC) and AD293 cells (Stratagene) were grown in DMEM supplemented with 10% FBS and 1% penicillin/streptomycin and incubated in a 5% CO2 atmosphere at 37° C. Mink lung epithelial cells stably transfected with the plasminogen activator inhibitor 1 (PAI-1) reporter construct driving luciferase expression (MLEC-TGFβ) (2) were grown in DMEM supplemented with 10% FBS and 1% penicillin/streptomycin, maintained in 250 μg/ml G418, and incubated in a 5% CO2 atmosphere at 37° C.
as §1
Recombinant ACLP induces myofibroblast gene and protein expression. To further define the role of ACLP in the fibroblast to myofibroblast differentiation process, IMR90 human lung fibroblast cells were treated with rACLP. […] IMR90 cells were grown in media containing 3.75 μg/ml (30 nM) rACLP or 1 nM TGFβ as a positive control (FIG. 2A). […] These findings indicate that ACLP promotes the fibroblast to myofibroblast differentiation because it stimulates expression of SMA and collagen 1(3).
The N-terminal domain of ACLP promotes myofibroblast marker protein expression. Because the inventors discovered that the N-terminal Tsp motifs of ACLP (e.g. the PFD) is the domain responsible for promoting TGFβ signaling, the inventors next assessed which domain of ACLP is responsible for increased SMA and collagen I expression in lung myofibroblasts. IMR90 lung fibroblasts were treated in low serum media containing equal molar amounts of full-length protein, the pro-fibrotic domain (PFD) of ACLP, and C-terminal ACLP (˜30 nM) for 48 h (FIG. 7).

TGFβ Receptor II (TβRII) = target: T1, TGFβ Receptor II (TβRII) (Mus musculus, UniProt Q62312); experiment: ACLP binding assay: biotinylated rACLP on streptavidin plate incubated with TβRII Fc; settings: immobilized rACLP vs control-coated wells, p<0.05
T1 construct: contains the extracellular domain of mouse TβRII fused to the Fc domain of human IgG; purchased R&D
T1 sequence (Q62312 24-166 limits assumed): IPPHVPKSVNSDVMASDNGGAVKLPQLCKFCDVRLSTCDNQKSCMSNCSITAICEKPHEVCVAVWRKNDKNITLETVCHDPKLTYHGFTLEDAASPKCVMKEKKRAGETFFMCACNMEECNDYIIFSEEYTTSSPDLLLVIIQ
Description: ACLP binding assays. To determine if ACLP binds to TGFβ Receptor II (TORII), ACLP was biotinylated using an EZ-Link Sulfo-NHS-LC-Biotin kit (Thermo Scientific 21327) according to manufacturer's instructions. Briefly, rACLP (0.267 nM) was incubated with 20 fold molar excess of biotin for 30 min at room temperature. The protein was then dialyzed back into DPBS overnight. Biotinylated ACLP (1 μg/well) was immobilized on a PIERCE™ Streptavidin coated High-Binding Capacity Plate (Thermo-Scientific PI-15500) overnight at 4° C. in binding buffer made up of PBS with Mg^2+, Ca^2+, 0.1% BSA, and 0.05% Tween 20). The next day, the plates were washed with binding buffer, blocked with the same buffer containing 1% BSA at room temperature for 1 h, followed by incubation with increasing amounts of TβRII Fc (0, 10, 100, 1000 ng). Binding was detected with Human-IgG-HRP (GE Healthcare Life Sciences) followed by incubation with 3,3′,5,5′-Tetramethylbenzidine (TMB, eBioscience). The reaction was quenched with 2 M H2SO4 and absorbance at 450 nm was measured on the BioTek Synergy HT system.
ACLP binds to the TGFβ-receptor II. […] The TβRII Fc chimera contains the extracellular domain of mouse TβRII fused to the Fc domain of human IgG and has been used as a global inhibitor of TGFβ (6).

TGFβ = experiment: ACLP interaction with TGFβ (cell-free binding assay; latent TGFβ activation; data not shown)
[4] = system: Normal murine mammary gland epithelial cells (NMuMg); experiment: EMT marker qPCR in NMuMg cells treated with rACLP; format: cell-based, mouse
Description: Normal murine mammary gland epithelial cells (NMuMg) were treated with rACLP (30 nM) or TGFβ (1 nM) and RNA was analyzed by qPCR after 48 hours.

amount that stimulated luciferase activity [2]: > 25 µg/mL
B1: C-terminal ACLP: recombinant C-terminal discoidin and carboxypeptidase domains of mouse ACLP, amino acids 374-1128 (protein)
chain: IKCPPIGMESHRIEDNQIRASSMLRHGLGAQRGRLNMQAGANEDDYYDGAWCAEDESQTQWIEVDTRRTTRFTGVITQGRDSSIHDDFVTTFFVGFSNDSQTWVMYTNGYEEMTFYGNVDKDTPVLSELPEPVVARFIRIYPLTWNGSLCMRLEVLGCPVTPVYSYYAQNEVVTTDSLDFRHHSYKDMRQLMKAVNEECPTITRTYSLGKSSRGLKIYAMEISDNPGDHELGEPEFRYTAGIHGNEVLGRELLLLLMQYLCQEYRDGNPRVRNLVQDTRIHLVPSLNPDGYEVAAQMGSEFGNWALGLWTEEGFDIFEDFPDLNSVLWAAEEKKWVPYRVPNNNLPIPERYLSPDATVSTEVRAIISWMEKNPFVLGANLNGGERLVSYPYDMARTPSQEQLLAEALAAARGEDDDGVSEAQETPDHAIFRWLAISFASAHLTMTEPYRGGCQAQDYTSGMGIVNGAKWNPRSGTFNDFSYLHTNCLELSVYLGCDKFPHESELPREWENNKEALLTFMEQVHRGIKGVVTDEQGIPIANATISVSGINHGVKTASGGDYWRILNPGEYRVTAHAEGYTSSAKICNVDYDIGATQCNFILARSNWKRIREILAMNGNRPILRVDPSRPMTPQQRRMQQRRLQYRLRMREQMRLRRLNSTAGPATSPTPALMPPPSPTPAITLRPWEVLPTTTAGWEESETETYTEVVTEFETEYGTDLEVEEIEEEEEEEEEEMDTGLTFPLTTVETYTVNFGDF
modifications: left off: small tags and cut ends
Smad3 phosphorylation [1]: did not

binding to the TβRII Fc chimera (absorbance at 450 nm) (TGFβ Receptor II (TβRII)): significantly more binding
B2: rACLP: recombinant full length mouse ACLP (amino acids 26-1128), BM40 signal sequence, C-terminal myc-His tag, from AD293 cells (protein)
chain: QTVLTDDEIEEFLEGFLSELETQSPPREDDVEVQPLPEPTQRPRKSKAGGKQRADVEVPPEKNKDKEKKGKKDKGPKATKPLEGSTRPTKKPKEKPPKATKKPKEKPPKATKKPKEKPPKATKKPKEKPPKATKRPSAGKKFSTVAPLETLDRLLPSPSNPSAQELPQKRDTPFPNAWQGQGEETQVEAKQPRPEPEEETEMPTLDYNDQIEKEDYEDFEYIRRQKQPRPTPSRRRLWPERPEEKTEEPEERKEVEPPLKPLLPPDYGDSYVIPNYDDLDYYFPHPPPQKPDVGQEVDEEKEEMKKPKKEGSSPKEDTEDKWTVEKNKDHKGPRKGEELEEEWAPVEKIKCPPIGMESHRIEDNQIRASSMLRHGLGAQRGRLNMQAGANEDDYYDGAWCAEDESQTQWIEVDTRRTTRFTGVITQGRDSSIHDDFVTTFFVGFSNDSQTWVMYTNGYEEMTFYGNVDKDTPVLSELPEPVVARFIRIYPLTWNGSLCMRLEVLGCPVTPVYSYYAQNEVVTTDSLDFRHHSYKDMRQLMKAVNEECPTITRTYSLGKSSRGLKIYAMEISDNPGDHELGEPEFRYTAGIHGNEVLGRELLLLLMQYLCQEYRDGNPRVRNLVQDTRIHLVPSLNPDGYEVAAQMGSEFGNWALGLWTEEGFDIFEDFPDLNSVLWAAEEKKWVPYRVPNNNLPIPERYLSPDATVSTEVRAIISWMEKNPFVLGANLNGGERLVSYPYDMARTPSQEQLLAEALAAARGEDDDGVSEAQETPDHAIFRWLAISFASAHLTMTEPYRGGCQAQDYTSGMGIVNGAKWNPRSGTFNDFSYLHTNCLELSVYLGCDKFPHESELPREWENNKEALLTFMEQVHRGIKGVVTDEQGIPIANATISVSGINHGVKTASGGDYWRILNPGEYRVTAHAEGYTSSAKICNVDYDIGATQCNFILARSNWKRIREILAMNGNRPILRVDPSRPMTPQQRRMQQRRLQYRLRMREQMRLRRLNSTAGPATSPTPALMPPPSPTPAITLRPWEVLPTTTAGWEESETETYTEVVTEFETEYGTDLEVEEIEEEEEEEEEEMDTGLTFPLTTVETYTVNFGDF
modifications: left off: small tags and cut ends
SMA protein expression [3]: induced an increase
collagen protein expression [3]: induced an increase
SMA protein expression ([3]; listed as Full-length ACLP): promoted an increase
collagen protein expression ([3]; listed as Full-length ACLP): promoted an increase
time at which Smad3 phosphorylation was first detected ([1]; serum starved IMR90, 3.75 μg/ml rACLP): 15 min
Smad3 phosphorylation, short-term treatment ([1]; serum starved IMR90, 3.75 μg/ml rACLP, 15-60 min): stimulated Smad3 phosphorylation
Smad3 phosphorylation after 24 h ([1]; serum starved IMR90, 3.75 μg/ml rACLP, 24 h): not detectable
Smad3 phosphorylation [1]: stimulated Smad3 phosphorylation
activation of latent TGFβ (TGFβ): did not appear to
direct interaction with TGFβ (TGFβ; cell-free binding assay): did not appear to directly interact
cellular morphology ([4]; ACLP treated cells, consistent with EMT): change in cellular morphology
epithelial marker occludin (qPCR) ([4]; NMuMg, rACLP 30 nM, 48 hours): decreasing
mesenchymal marker SMA (qPCR) ([4]; NMuMg, rACLP 30 nM, 48 hours): enhanced
mesenchymal marker Snail (qPCR) ([4]; NMuMg, rACLP 30 nM, 48 hours): enhanced
mesenchymal marker fibronectin (qPCR) ([4]; NMuMg, rACLP 30 nM, 48 hours): enhanced
